In assay [1] the target is T1, human FcRn (human).
T1 construct: also called soluble human FcRn complexed with β2-microglobulin
Put plainly: Biacore SPR, pH7.0, against VH3/L(WT)-IgG1. Background: SPR reads the build-up and loss of mass on a sensor chip optically.
T1 sequence (chain, as listed by the source limits assumed, chain 1 of 2): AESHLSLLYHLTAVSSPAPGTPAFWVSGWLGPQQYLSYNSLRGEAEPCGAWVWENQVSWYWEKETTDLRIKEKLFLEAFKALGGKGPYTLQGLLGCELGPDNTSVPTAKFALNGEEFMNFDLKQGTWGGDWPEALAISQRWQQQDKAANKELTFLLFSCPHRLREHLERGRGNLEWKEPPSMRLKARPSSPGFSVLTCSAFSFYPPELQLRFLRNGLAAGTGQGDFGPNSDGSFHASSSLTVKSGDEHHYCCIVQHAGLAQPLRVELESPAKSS
T1 sequence (P61769 21-119 limits assumed, chain 2 of 2): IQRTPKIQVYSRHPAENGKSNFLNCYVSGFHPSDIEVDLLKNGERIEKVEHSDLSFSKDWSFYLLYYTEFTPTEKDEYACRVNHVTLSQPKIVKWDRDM
Experimental: (§1) Kinetic analyses between human FcRn and the antibody were carried out using Biacore T100 (GE Healthcare). A suitable amount of protein L (ACTIGEN) was immobilized onto a Sensor chip CM4 (GE healthcare) by the amine coupling method, and antibodies of interest were captured onto it. Next, diluted solutions of FcRn and the running buffer which is the blank were injected, and human FcRn was made to interact with the antibodies captured on the sensor chip. The running buffer used was 50 mmol/L sodium phosphate, 150 mmol/L NaCl, 0.05% (w/v) Tween 20, pH7.0, and the buffer was used for the FcRn dilutions. The sensor chip was regenerated using 10 mmol/L Glycine-HCl, pH1.5. All measurements were carried out at 25° C. Based on the association rate constant ka (1/Ms) and dissociation rate constant kd (1/s), which are kinetic parameters, calculated from the sensorgram obtained by the measurement, the KD (M) (affinity) of each antibody toward human FcRn was calculated. Each parameter was calculated using the Biacore T100 Evaluation Software (GE Healthcare).

Assay [2] concerns the target T2, human FcRn (human).
T2 construct: also called soluble human FcRn complexed with β2-microglobulin
Briefly: Biacore, pH 7.0.
T2 sequence (chain, as listed by the source limits assumed, chain 1 of 2): as the sequence (chain, as listed by the source limits assumed, chain 1 of 2) above
T2 sequence (P61769 21-119 limits assumed, chain 2 of 2): as the sequence (P61769 21-119 limits assumed, chain 2 of 2) above
Experimental: as §1

Assay [3] deals with T3, human FcRn (human).
T3 construct: also called soluble human FcRn complexed with β2-microglobulin
Put plainly: Biacore SPR, antibody captured on protein L, human FcRn as analyte, pH 7.0, 25 C.
T3 sequence (chain, as listed by the source limits assumed, chain 1 of 2): as the sequence (chain, as listed by the source limits assumed, chain 1 of 2) above
T3 sequence (P61769 21-119 limits assumed, chain 2 of 2): as the sequence (P61769 21-119 limits assumed, chain 2 of 2) above
Experimental: as §1

The target in assay [4] is T4, mFcγRIII extracellular domain with C-terminal His-tag (mouse, UniProt P08508 31-215).
T4 construct: extracellular domain; also called mouse FcγRIII
T4 sequence (looked up): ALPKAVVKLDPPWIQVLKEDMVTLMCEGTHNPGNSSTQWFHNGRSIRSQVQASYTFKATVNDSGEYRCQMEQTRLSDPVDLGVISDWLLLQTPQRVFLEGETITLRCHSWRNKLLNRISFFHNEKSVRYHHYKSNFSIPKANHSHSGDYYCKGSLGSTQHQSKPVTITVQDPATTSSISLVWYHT
Put plainly: Biacore SPR, antibody captured on Protein L, FcγR extracellular domain as analyte, 25 C, 1:1 Langmuir fit.
Experimental: (§2) Analysis of interaction between each of the altered antibodies and the extracellular domain of the Fcγ receptor prepared as mentioned above was carried out using Biacore T100 (GE Healthcare), Biacore T200 (GE Healthcare), Biacore A100, and Biacore 4000. HBS-EP+(GE Healthcare) was used for the running buffer, and the interactions were measured with a measurement temperature at 25° C. Chips produced by immobilizing Protein L (ACTIGEN or BioVision) by the amine coupling method to a Series S sensor Chip CM5 (GE Healthcare) or Series S sensor Chip CM4 (GE Healthcare) were used.
(§3) The KD values of each of the altered antibodies for the extracellular domain of the Fcγ receptor were calculated according to the following kinetic analysis method.

Assay [5] has as its target T5, mFcγRII extracellular domain with C-terminal His-tag (mouse, UniProt P08101 30-210).
T5 construct: extracellular domain; also called mouse FcγRII
T5 sequence (looked up): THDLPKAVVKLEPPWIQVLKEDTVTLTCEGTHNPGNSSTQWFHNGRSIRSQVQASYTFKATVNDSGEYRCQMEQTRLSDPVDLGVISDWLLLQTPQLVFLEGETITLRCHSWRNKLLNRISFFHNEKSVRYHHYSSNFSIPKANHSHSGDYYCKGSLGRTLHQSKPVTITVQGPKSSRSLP
The assay is described as above.
Experimental: as §2, §3

For assay [6], the target named is T6, mFcγRI extracellular domain with C-terminal His-tag (mouse, UniProt P26151 25-297).
T6 construct: extracellular domain; also called mouse FcγRI
T6 sequence (looked up): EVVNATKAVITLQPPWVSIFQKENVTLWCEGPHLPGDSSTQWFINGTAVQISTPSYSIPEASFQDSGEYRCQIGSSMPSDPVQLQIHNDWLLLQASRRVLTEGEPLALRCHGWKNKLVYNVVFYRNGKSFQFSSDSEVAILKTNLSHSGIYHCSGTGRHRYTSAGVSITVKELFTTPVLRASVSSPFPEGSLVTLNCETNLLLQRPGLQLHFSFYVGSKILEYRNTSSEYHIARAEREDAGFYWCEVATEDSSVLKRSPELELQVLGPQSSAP
Put plainly: Biacore SPR, antibody captured on Protein L, FcγR extracellular domain as analyte, 25 C.
Experimental: as §2
After capturing of each of the altered antibodies onto these sensor chips, the extracellular domain of the Fcγ receptor diluted with the running buffer was allowed to act on the chips to measure the binding level of each of the domains to each of the antibodies, and the binding levels were compared. However, since the amount of the bound extracellular domain of the Fcγ receptor depends on the amount of the antibodies captured on the sensorchip, the amount of the bound extracellular domain of the Fcγ receptor was divided by the respective amount of captured antibody to obtain corrected values, and these values were compared. Furthermore, by reaction with 10 mM glycine-HCl having pH of 1.5, antibodies captured onto the sensor chips were washed, and the regenerated sensor chips were used repeatedly.

The next assay deals with T7, mouse FcRn (mouse, UniProt Q61559 22-297; P01887 21-119, limits assumed).
T7 sequence (looked up) 1: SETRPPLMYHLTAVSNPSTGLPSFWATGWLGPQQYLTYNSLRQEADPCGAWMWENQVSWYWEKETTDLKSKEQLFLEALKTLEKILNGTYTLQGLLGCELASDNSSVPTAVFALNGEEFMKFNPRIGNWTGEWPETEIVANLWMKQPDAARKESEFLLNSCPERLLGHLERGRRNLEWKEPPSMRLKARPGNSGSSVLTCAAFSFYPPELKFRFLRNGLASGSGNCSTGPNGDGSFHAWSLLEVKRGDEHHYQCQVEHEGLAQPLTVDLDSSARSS
T7 sequence (looked up) 2: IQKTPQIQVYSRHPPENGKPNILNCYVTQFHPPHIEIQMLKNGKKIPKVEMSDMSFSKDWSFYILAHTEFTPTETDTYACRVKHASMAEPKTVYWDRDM
Briefly: Biacore SPR, mouse FcRn, pH 7.0.

As a reminder, the Kd is the equilibrium constant for the complex coming apart. A higher Kd goes with lower affinity.

B1: IgG1-F157 (antibody)
heavy: QVQLQESGPGLVKPSETLSLTCAVSGHSISHDHAWSWVRQPPGEGLEWIGFISYSGITNYNPSLQGRVTISRDNSKNTLYLQMNSLRAEDTAVYYCARSLARTTAMDYWGEGTLVTVSSASTKGPSVFPLAPSSKSTSGGTAALGCLVKDYFPEPVTVSWNSGALTSGVHTFPAVLQSSGLYSLSSVVTVPSSSLGTQTYICNVNHKPSNTKVDKKVEPKSCDKTHTCPPCPAPELLGGPSVFLFPPKPKDTLMISRTAEVTCVVVDVSHEDPEVKFNWYVDGVEVHNAKTKPREEQYNSTYRVVSVLTPLHQDWLNGKEYKCKVSNKALPAPIEKTISKAKGQPREPQVYTLPPSRDELTKNQVSLTCLVKGFYPSDIAVEWESNGQPENNYKTTPPVLDSDGSFFLYSKLTVDKSRWQQGNVFSCSVLHEALHYHYTQKSLSLSP
light: not shown
notes: EU numbering; also called VH3/L(WT)-F157; copies: 2 + 2
Regarding B1, in the assay with human FcRn [1], the “fold affinity relative to IgG1” value was ~600 fold.

B2: F1353 (antibody)
heavy: QVQLQESGPGLVKPSETLSLTCAVSGHSISHDHAWSWVRQPPGEGLEWIGFISYSGITNYNPSLQGRVTISRDNSKNTLYLQMNSLRAEDTAVYYCARSLARTTAMDYWGEGTLVTVSSASTKGPSVFPLAPSSKSTSGGTAALGCLVKDYFPEPVTVSWNSGALTSGVHTFPAVLQSSGLYSLSSVVTVPSSSLGTQTYICNVNHKPSNTKVDKKVEPKSCDKTHTCPPCPAPELRGGPKVFLFPPKPKDTLYISRTPEVTCVVVDVSHEDPEVKFNWYVDGVEVHNAKTKPREEQYNSTYRVVSVLTVLHQDWLNGKEYKCKVSNKALPAPIEKTISKAKGQPREPQVYTLPPSRDELTKNQVSLTCLVKGFYPSDIAVEWESNGQPENNYKTTPPVLDSDGSFFLYSKLTVDKSRWQQGNVFSCSVMHEALDYHTTRKELSLSP
light: not shown
notes: EU numbering; copies: 2 + 2
In turn, B2 displayed a Kd with human FcRn [2] of 0.133 µM.

B3: F1430 (antibody, IgG1, name in EU numbering)
heavy: QVQLQESGPGLVKPSETLSLTCAVSGHSISHDHAWSWVRQPPGEGLEWIGFISYSGITNYNPSLQGRVTISRDNSKNTLYLQMNSLRAEDTAVYYCARSLARTTAMDYWGEGTLVTVSSASTKGPSVFPLAPSSKSTSGGTAALGCLVKDYFPEPVTVSWNSGALTSGVHTFPAVLQSSGLYSLSSVVTVPSSSLGTQTYICNVNHKPSNTKVDKKVEPKSCDKTHTCPPCPAPELRGGPKVFLFPPKPKDTLYISREPEVTCVVVDVSHEDPEVKFNWYVDGVEVHNAKTKPREEQYNSTYRVVSKLTPLHQDWLNGKEYKCKVSNKALPAPIEKTISKAKGQPREPQVYTLPPSRDELTKNQVSLTCLVKGFYPSDIAVEWESNGQPENNYKTTPPVLDSDGSFFLYSKLTVDKSRWQQGNVFSCSVMHEALDYHVTRKELSLSP
light: not shown
notes: EU numbering; copies: 2 + 2
B3: binding with human FcRn [3] was characterised by a dissociation constant (Kd) of 0.031 µM.

B4: Fv4-mIgG1 (antibody)
heavy: QVQLQESGPGLVKPSETLSLTCAVSGHSISHDHAWSWVRQPPGEGLEWIGFISYSGITNYNPSLQGRVTISRDNSKNTLYLQMNSLRAEDTAVYYCARSLARTTAMDYWGEGTLVTVSSAKTTPPSVYPLAPGSAAQTNSMVTLGCLVKGYFPEPVTVTWNSGSLSSGVHTFPAVLQSDLYTLSSSVTVPSSTWPSETVTCNVAHPASSTKVDKKIVPRDCGCKPCICTVPEVSSVFIFPPKPKDVLTITLTPKVTCVVVDISKDDPEVQFSWFVDDVEVHTAQTQPREEQFNSTFRSVSELPIMHQDWLNGKEFKCRVNSAAFPAPIEKTISKTKGRPKAPQVYTIPPPKEQMAKDKVSLTCMITDFFPEDITVEWQWNGQPAENYKNTQPIMDTDGSYFVYSKLNVQKSNWEAGNTFTCSVLHEGLHNHHTEKSLSHSPGK
light: DIQMTQSPSSLSASVGDSVTITCQASTDISSHLNWYQQKPGKAPELLIYYGSHLLSGVPSRFSGSGSGTDFTFTISSLEAEDAATYYCGQGNRLPYTFGQGTKVEIERADAAPTVSIFPPSSEQLTSGGASVVCFLNNFYPKDINVKWKIDGSERQNGVLNSWTDQDSKDSTYSMSSTLTLTKDEYERHNSYTCEATHKTSTSPIVKSFNRNEC
notes: VH3-mIgG1 with VL3-mCK; copies: 2 + 2
For the molecule B4, the Kd in assay [4] amounted to 0.085 µM; in assay [5], 0.57 µM. Further, the binding result in assay [6] is recorded as “no binding”.

B5: Fv4-mF3 (antibody, mouse IgG1, kappa)
heavy: QVQLQESGPGLVKPSETLSLTCAVSGHSISHDHAWSWVRQPPGEGLEWIGFISYSGITNYNPSLQGRVTISRDNSKNTLYLQMNSLRAEDTAVYYCARSLARTTAMDYWGEGTLVTVSSAKTTPPSVYPLAPGSAAQTNSMVTLGCLVKGYFPEPVTVTWNSGSLSSGVHTFPAVLQSDLYTLSSSVTVPSSTWPSETVTCNVAHPASSTKVDKKIVPRDCGCKPCICTVPEVSSVFIFPPKPKDVLYITLEPKVTCVVVDISKDDPEVQFSWFVDDVEVHTAQTQPREEQFNSTFRSVSELPIMHQDWLNGKEFKCRVNSAAFPAPIEKTISKTKGRPKAPQVYTIPPPKEQMAKDKVSLTCMITDFFPEDITVEWQWNGQPAENYKNTQPIMDTDGSYFVYSKLNVQKSNWEAGNTFTCSVLHEGLKFHHTEKSLSHSPGK
light: DIQMTQSPSSLSASVGDSVTITCQASTDISSHLNWYQQKPGKAPELLIYYGSHLLSGVPSRFSGSGSGTDFTFTISSLEAEDAATYYCGQGNRLPYTFGQGTKVEIERADAAPTVSIFPPSSEQLTSGGASVVCFLNNFYPKDINVKWKIDGSERQNGVLNSWTDQDSKDSTYSMSSTLTLTKDEYERHNSYTCEATHKTSTSPIVKSFNRNEC
notes: VH3-mF3 with VL3-mCK; copies: 2 + 2
Take B5: the Kd in assay [4] was 0.14 µM; in assay [5] it was 0.87 µM; in the assay with mouse FcRn, 0.0015 µM. Besides, the binding result in assay [6] is recorded as “no binding”.

Source of the values: patent publication US20200115447A1 (Chugai, published 2020).
